Results published in doi:10.64898/2025.12.03.692196v2.
Numbering of substitutions follows the chain as printed. Names may count otherwise.

B1: YRDCWT (human YRDC, ΔN43) (Homo sapiens; R253K) (protein)
chain: GARLLRLPGSGAVQAASPERAGWTEALRAAVAELRAGAVVAVPTDTLYGLACAASCSAALRAVYRLKGRSEAKPLAVCLGRVADVYRYCRVRVPEGLLKDLLPGPVTLVMERSEELNKDLNPFTPLVGIRIPDHAFMQDLAQMFEGPLALTSANLSSQASSLNVEEFQDLWPQLSLVIDGGQIGDGQSPECRLGSTVVDLSVPGKFGIIKPGCALESTTAILQQKYGLLPSHASYL
B2: YRDCWT (human YRDC, ΔN43) (Homo sapiens) (protein)
chain: B1 chain with K210R
B3: YRDCWT (human YRDC, ΔN43) T89A (Homo sapiens; T89A) (protein)
chain: MSPARRCRGMRAAVAASVGLSEGPAGSRSGRLFRPPSPAPAAPGARLLRLPGSGAVQAASPERAGWTEALRAAVAELRAGAVVAVPTDALYGLACAASCSAALRAVYRLKGRSEAKPLAVCLGRVADVYRYCRVRVPEGLLKDLLPGPVTLVMERSEELNKDLNPFTPLVGIRIPDHAFMQDLAQMFEGPLALTSANLSSQASSLNVEEFQDLWPQLSLVIDGGQIGDGQSPECRLGSTVVDLSVPGKFGIIRPGCALESTTAILQQKYGLLPSHASYL
B4: YRDCS195A (Homo sapiens; S238A) (protein)
chain: B3 chain with A89T, S238A

Columns and labels:
[1] = substrate: Nc1ncnc2c1ncn2[C@@H]1O[C@H](COP(=O)(O)OP(=O)(O)OP(=O)(O)O)[C@@H](O)[C@H]1O; test: purified protein, by the assay type
[2] = substrate: C[C@@H](O)[C@H](N)C(=O)O; test: LC-MS of AMP formed from TC-AMP, Michaelis-Menten; assay type: biochemical, Homo sapiens; conditions: 250 µM ATP, 50 mM NaHCO3, 10 mM MgCl2, Tricine pH 8.5, 37 °C

Protein	Km [1] [µM]	kcat [1] [s⁻¹]	kcat/Km [1] [M⁻¹ s⁻¹]	Km [2] [µM]
B1	737.5 ± 521.2	0.005 ± 0.003	7 ± 6	
B2				7800
B3	230.7 ± 217.6	0.02 ± 0.001	90 ± 80	
B4	711.8 ± 175.5	0.005 ± 0.0009	7 ± 2	
